From article PMC8526623, “PHF3 regulates neuronal gene expression through the Pol II CTD reader domain SPOC” (Nature Communications, 2021)
Square brackets hold non-standard residues; d marks the D form. Ends that are not written are not given here. pS = N[C@@H](COP(=O)(O)O)C(=O)O; FAM = 5,6-carboxyfluorescein

Legend:
[1] = target: T1, 2xpS2pS7 CTD diheptapeptide, FAM-labeled; test: fluorescence polarisation; fluorescence anisotropy; 10 nM FAM-labeled CTD peptide titrated with SPOC protein; 20 °C, 25 mM Tris-Cl pH 8, 25 mM NaCl, 1 mM DTT; one site saturation with non-specific binding model
T1 construct: CTD diheptapeptide: two heptarepeats (Y1S2P3T4S5P6S7) of the C-terminal domain of RPB1, the largest Pol II subunit; source: synthetic peptide (Clonestar)
T1 peptide: {FAM}-Y[pS]PTSP[pS]Y[pS]PTSP[pS]

[2] = target: T2, 2xpS2pS5 CTD diheptapeptide, FAM-labeled; test: as above
T2 construct: CTD diheptapeptide: two heptarepeats (Y1S2P3T4S5P6S7) of the C-terminal domain of RPB1, the largest Pol II subunit; source: synthetic peptide (Clonestar)
T2 peptide: {FAM}-Y[pS]PT[pS]PSY[pS]PT[pS]PS

[3] = target: T3, 2xpS2 CTD diheptapeptide, FAM-labeled; test: as above
T3 construct: CTD diheptapeptide: two heptarepeats (Y1S2P3T4S5P6S7) of the C-terminal domain of RPB1, the largest Pol II subunit; source: synthetic peptide (Clonestar)
T3 peptide: {FAM}-Y[pS]PTSPSY[pS]PTSPS

[4] = target: 2xpS2pS5 CTD diheptapeptide, Atto-488 labeled; test: fluorescence correlation spectroscopy (FCS); 15 nM Atto-488 labeled peptide with 40-0.2 µM SPOC, 20 °C; molar masses from diffusion times
[5] = target: 2xpS2 CTD diheptapeptide, Atto-488 labeled; test: as above
[6] = target: 2xpS5 CTD diheptapeptide, FAM-labeled; test: fluorescence polarisation; fluorescence anisotropy; 10 nM FAM-labeled CTD peptide titrated with SPOC protein; 20 °C, 25 mM Tris-Cl pH 8, 25 mM NaCl, 1 mM DTT; one site saturation with non-specific binding model
[7] = target: 2xpS7 CTD diheptapeptide, FAM-labeled; test: as above
PHF3 SPOC R1248A mutant = target: T4, PHF3 SPOC R1248A mutant (human, UniProt Q92576 1199-1356, R1248A); test: FP; 25 mM NaCl
T4 sequence: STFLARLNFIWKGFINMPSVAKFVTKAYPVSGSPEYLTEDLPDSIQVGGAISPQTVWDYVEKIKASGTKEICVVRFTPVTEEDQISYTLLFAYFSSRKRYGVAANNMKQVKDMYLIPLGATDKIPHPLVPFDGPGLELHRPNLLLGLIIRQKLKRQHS

[8] = target: T5, PHF3 SPOC domain (1199-1356aa), bacterially expressed (human, UniProt Q92576 1199-1356); test: FP; 100 mM NaCl
T5 chain: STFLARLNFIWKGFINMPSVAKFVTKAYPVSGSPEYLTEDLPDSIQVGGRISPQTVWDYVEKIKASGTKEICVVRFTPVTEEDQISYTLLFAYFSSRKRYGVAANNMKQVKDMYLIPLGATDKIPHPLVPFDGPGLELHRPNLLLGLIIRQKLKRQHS

PHF3 SPOC domain (1199-1356aa), bacterially expressed (from UniProt Q92576 1199-1356) (domain or fragment)
Kd [1]: 0.8 µM | Kd [2]: 4.8 µM | Kd [3]: 1.6 µM | stoichiometry N [4]: 1 | stoichiometry N [5]: 1 | Kd [6]: 20 µM | Kd [7]: 26 µM

{FAM}-YSPT[pS]PSYSPT[pS]PS [2xpS5 CTD diheptapeptide, FAM-labeled]
Kd (PHF3 SPOC R1248A mutant): 22.3 µM

B1: PHF3 SPOC R1248A mutant (domain or fragment, human, UniProt Q92576 1199-1356, looked up)
chain: STFLARLNFIWKGFINMPSVAKFVTKAYPVSGSPEYLTEDLPDSIQVGGAISPQTVWDYVEKIKASGTKEICVVRFTPVTEEDQISYTLLFAYFSSRKRYGVAANNMKQVKDMYLIPLGATDKIPHPLVPFDGPGLELHRPNLLLGLIIRQKLKRQHS
notes: Expression, purification and tag cleavage are told only for SPOC in general; source: E. coli Rosetta2 (DE3), purified (told for SPOC); not shown: His6, N-terminal, cleaved
fold reduction of binding against PHF3 SPOC WT ([1]; both partners purified): > 10 fold | fold reduction of binding against PHF3 SPOC WT ([2]; both partners purified): > 10 fold | fold reduction of binding against PHF3 SPOC WT ([3]; both partners purified): > 10 fold

{FAM}-Y[pS]PT[pS]PSY[pS]PT[pS]PS [2xpS2pS5 CTD diheptapeptide, FAM-labeled]
Kd (PHF3 SPOC R1248A mutant): 48.3 µM

{FAM}-Y[pS]PTSPSY[pS]PTSPS [2xpS2 CTD diheptapeptide, FAM-labeled]
Kd [8]: 1.4 µM
